Laboratory results published in the domain aggregation screens of Martell et al. (2025).

assay: soluble fraction after stress (log2 fold change); higher = more stays soluble; pooled small domains, quantitative proteomics; conditions: stress: 50 degC
In short: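 Pooled custom libraries of small protein domains were measured in a high-throughput format, with quantitative proteomics as the read-out. Each library was stressed at 50°C. Aggregation propensity is given as the base-two logarithm of the fold change in how much of each protein stays soluble after the stress. Higher values mean a larger share of the protein remains in solution.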

Going from “HMATETMGMIIRRLRREHGLTQEELAASIGVTAQAVSKWEKDLGMPDISQIVPLAGAFNVRTDVLFGLE” to “HMATEWLSSKEAAQRLGVSAATLYAYVSRGLLRSEGSSGQRERRYRADDVAQLRRRREVGRKAESIAASTL”, the “soluble fraction (log2)” value rises from -0.98 to -0.433.

“HMATHWHITPNPNNGKFLISGLMQDDSFHLMDASGQWLRQLRTVNQELDLDLQPGVYFLKDNSGSVMKFVV” and “HMATIADILAEHKDKEGPLLPVLHDVQKMFGHVSEEAMREIAQALNLTRAEVYGVVSFYHDFRKEVE” are within 0.2 log units of each other in “soluble fraction (log2)” value: -0.98 for the first, -0.975 for the second.

Going from “HMATIIGSIGIVTQKVGLTGVPGRVYVNNESWAAISANGKEIENDTQVIVVKIDGATLIIEKKG” to “HMATKEQIKRIYGLGAGLGIVGKDKDDMLHELIFSITGKDSVKQLDDSEFKAVQAELINRMKLA”, the “soluble fraction (log2)” value rises from -1.47 to 0.132.

First: HMATLAVPNLMRLSQGEAMALIRLSGLSIGNVSIDSSMGSPRVIRQEPQASGGMLVLTQGDQVHLWLEGP
Second: HMATLQLPVPKITLYPGELIRSDHLTDQRFNARALYHSAVYKSREDIVGKVARRTLLPGQPIPVNALR
The “soluble fraction (log2)” value of the first is lower: -3.2 for the first, -0.057 for the second.

First: HMATPKRGFRKQLAPLVQSGTITREEAGELSRSSGDATALRTKIGELMKAGKLTRKEAGELYSDAFPENA
Second: HMATPYISMAGIGKSFGPVHALKSVNLTVYPGEIHALLGENGAGKSTLMKVLSGIHEPTKGTITINNIN
The “soluble fraction (log2)” value of the first is lower: 0.153 for the first, 0.384 for the second.

Compared with “HMATRAEQMAKTHQAILDTARELFLRNGYDATSTRDIANAIGITQPALYHHFKDKEVIFLAVI”, “HMATSLTEQEKLIFGLLKKQSPIELSSLKEQAGLSNKKWDKAIKGLSTQQLAKVTKTENGLFVHLLQ” is higher in “soluble fraction (log2)” value: -0.172 for the first, 0.148 for the second.

Going from “HMATTAGIEKYLGSGLIKGIGPIYAKKIVRKFKEDTIRIIDEEPDRLLEVEGIGQKRLEIIKQAWQQQKE” to “HMATVHVDGIQYDFSSPEQAKEFAYKWAKKHNLTWEVHGETIHIK”, the “soluble fraction (log2)” value rises from -0.391 to -0.0845.

Going from “HMATYNEVLKRLIEERKRLGLSQQEMARLVHITQSNYSKVEKGLHRLSYEELKYLSKANVDIFYILT” to “HMAVANEAIANINMKEVKQAIHNLPEIFKNPFLLYFDGYKYHEIAEMLDEPLGTIKSRIHFARKLLKSHI”, the “soluble fraction (log2)” value falls from 0.136 to -0.674.

“HMAVDVNKATAAELDSIKGIGPAISAKILEEKKKGGNFKDWNDLVTRVSGVGEANAAKFSSEGLTVGGAS” and “HMAVELPLETTLDIVRKYARNQEVDRRAERVEAVSAEALQTLAPRGTKLASEIVEQAKTQVLEELA” are within 0.2 log units of each other in “soluble fraction (log2)” value: 0.0629 for the first, 0.177 for the second.

First: HMAVKYTKDDFLYTEKPYEAIYDYKNDPFMHNLKIEQMAQQAAEVGVKTFKGLYKNYVKMREMQRGANV
Second: HMAVNSALVQRNWLIGYRIAEEELQGDNRAEYGASIIKKLAKELTAEYGKGYTKTNLYHFYSFYKT
The “soluble fraction (log2)” value of the first is higher: 0.14 for the first, -0.136 for the second.

First: HMAVNVNGIHLSSQQHEALVSIWRTGRMPEPHAGQKPWLWIQALRRRGLVSGNALRLTDKGRHIVQLLQ
Second: HMAVPAALVQAWLELSRRMVAGTQDVGERFAEEARKMHYGETEDRGIRGQATLTEVRDLLDEGIEVLPLLL
The “soluble fraction (log2)” value of the first is higher: 0.142 for the first, -0.392 for the second.

“HMAVPLVRGTVTSSVGTVLLLSVGERDFFLSEGEEKDGVLLQSLSEKSAVVVVSGRAYTLSL” and “HMAVRLADMAAEKIRKMIIENKFDAGEPLSEMRLAEMFNVSRTPIREAIAILEQEGLLTTVHGKGAFIS” are within 0.2 log units of each other in “soluble fraction (log2)” value: -0.408 for the first, -0.367 for the second.

“HMAVSDAAEEYGKAGTPLVILAGKEYGSGSSRDWAAKGPYLQGVRAVLAESYERIHRSNLVGMGIVPLTYK” and “HMAVSDPTAGGIKALMYPNPAQDRLSVALDIPAGLDKQAQMTVTDMMGRVVTQQQVTLNDGFQVFEL” are within 0.2 log units of each other in “soluble fraction (log2)” value: 0.0654 for the first, 0.215 for the second.

Going from “HMAVSSYSVKRYIRNMIQAEDPSAPFSDEALRLALLAHGIAVSRRVVTKYRMAMDIPSSSQRRKR” to “HMAVSTFGRITASSLNVRSGPSTDHEKVGSLAAGRVVELLEESDGWYRIENGYISTEYVTIVDPSQ”, the “soluble fraction (log2)” value rises from -0.866 to -0.355.

“HMAVTEVKTTAVVNMRSSDSEKADKLGKAQIGDTFRVLEQRANGWTKLTDGTQEFFIKSEYLEAIA” and “HMAVVAPLAGSVARVLVADGDEIEAGQVLLVLEAMKMETEITAPKAGKVGAILVGKGDSVQGGQGLR” are within 0.2 log units of each other in “soluble fraction (log2)” value: 0.0956 for the first, -0.051 for the second.

First: HMAYLTGFHAIEELIRAGKAKGPLLVANAGPRARTIMSLATDNKIRIDRLGEHELNRLAPGNRGIALYVE
Second: HMDAAYVYVIGTRVNQRAGPSTSNAVMGVLSEGTRVETLRDEGQWTQIRSNFGTGWMSSSFLSSVAP
The “soluble fraction (log2)” value of the first is higher: 0.13 for the first, -1.55 for the second.

Compared with “HMDADRILHKTLKPRELEIYQLIKAYLEEHSQIANAKVQEISGLSEATTRRYLNIFVEFGLLKTS”, “HMDADTVGQIRVVKQILDDGRLIVVDASGNPVLVRRSSALSLTAISQGDRIIVDPSVRLAIELLPNE” is higher in “soluble fraction (log2)” value: -0.0476 for the first, 0.185 for the second.

Going from “HMDAEELNSKAKDEFTWLEDDESETNLEYRKMVSSEDMAIVAKVAPALAAKLKYQLAHAATNMV” to “HMDAEVEHLFRIIAELKEKNVAIIYISHKMDEIFRISDDITVYRDGEYIATDRAENLNVDKVIQLMVGREV”, the “soluble fraction (log2)” value falls from 0.0207 to -0.339.

Compared with “HMDAEWRTLTLAPEQHQQRLDRALADSLPEFSRSYVQQLIDTGMVRVNGVLAAKSAQRVKALDQVQVELR”, “HMDAGIVVPDTYNKPLAEAVASLEGEGFRTEKKEGYSDTVAKGNVMSQNPEAGTNAERGSTVTIVISQGPQ” is higher in “soluble fraction (log2)” value: -0.229 for the first, 0.0495 for the second.

Going from “HMDAINYEDFQLLIKQRGSFKVAFEDIMFSTKVAIEKKEDFYDFVTKLIDNGFNNMAYNYLEGFQD” to “HMDAISYTQFMEEAKQGRINKVEVQGRTLMVTPTDGKAYSLTSPGDLWMTTDLMKYGVNVYGAE”, the “soluble fraction (log2)” value rises from -2.09 to -0.00324.

Compared with “HMDALKAVYQWVTRTMMKNQTGVMQTLPNRDLIELNTQITAQRLMQAGVDPTTLKNANQVENAVNIIESR”, “HMDAMGAVGIARAFISAGERGGDISDGLEHMHGKLLRLSSLMYTRSGKKMAARRHELLSSFVQALEEEIK” is higher in “soluble fraction (log2)” value: -0.473 for the first, -0.174 for the second.

Going from “HMDAMQAFPNPTVDEIHFVTPTTGRVYNAHGQLVMVLKNAQLVNVRQWSAGQYVIVREDGYAVRWIK” to “HMDAPQRVTYLLPHSRGEVVSWLHRQGEVVAQEYEAEGVRVVVDLRYAQIRQAAKQFDVLPAEG”, the “soluble fraction (log2)” value rises from -1.04 to -0.0612.

Going from “HMDAPRFAAGDAVRVAGLVSKPQHNGRAGSVLSYDPVSLRYIVKVDGEDEPLKLKPENVLMPA” to “HMDAQLRVPDLTPYNYSELKENTSLYEGFTIEVVEERSTGDYAAGTVLDQDPKADTLIQDGDSTVIKLVIA”, the “soluble fraction (log2)” value falls from 0.136 to -0.12.

First: HMDASFTYSLETHPAGVLVRVDGLEYETPFSILLPQGVHRLEVAGEERFFYLSETTHQFLEID
Second: HMDATGDPIADRILQALQLGELTRTQVNNVFQRHLAAARISQALNFLRSLKRADMRMEETAGRSGEVWFAI
The “soluble fraction (log2)” value of the first is lower: -0.901 for the first, -0.341 for the second.

Compared with “HMDAVKKKVQSTNTLLDVLKQMLPQTSSNTLRKMLTNQRITVDGETIHRAKHTVEKDQTVEIHPKP”, “HMDAVSYTQFMQDAKAGRIKKVIVHQSGILDVTTTEGRRFNLTSPGDLWMVGDLVKDGVDVVGAP” is lower in “soluble fraction (log2)” value: 0.256 for the first, -0.0657 for the second.

“HMDAVTYAKGSSGETVREIQQLLLDWGYYSGEVDGIFGSRTEDAVEYFQRKNGLTVDGKVGPATLEALGIS” and “HMDAYMIGHNIAKWRKEKGMTQDQLAEHLSVSGQAVSKWENGASLPDIAILPKLAEIFDVTMDQLFSR” are within 0.2 log units of each other in “soluble fraction (log2)” value: -0.0183 for the first, 0.144 for the second.

“HMDDAIAEKTGGAVSSVNQRQAILDHIREAYGIELESLRSTDIERYLDDPEIPEPVKDILRDRLRGAK” and “HMDDDAELLLKKLSAAGGELPFHDRSEPAEIEAAFGLSKSAFKRALGKLLKAGKVVKTQQGIQLK” are within 0.2 log units of each other in “soluble fraction (log2)” value: 0.181 for the first, 0.0395 for the second.

Going from “HMDDDIKNALDVLPEQYRMTVYYADVEGLAYKEIGAIMNTPIGTVMSRIHRGRSQLRVLLAAVAADR” to “HMDDFITLVIHTPAHAQNLRNILESHGMEVRLEDFVSFKSPVAVAQRVKIRPKDLPLALKIIESGE”, the “soluble fraction (log2)” value rises from -0.0377 to 0.227.

“HMDDFVEIDGKKYEIDMSFDNILRLFDLLKDKSLNDVTKIETGLIMLIDDSLDDYDTEEKADIFVQIF” and “HMDDGALQIRLGPQALQQRLDKLGYSLNKEDLDLVYQYFLHSADSKGAVYDQELRELMGEAGVE” are within 0.2 log units of each other in “soluble fraction (log2)” value: -0.0316 for the first, -0.0408 for the second.

“HMDDIHTFVYETETPFDPQKLDRYIGSLTAVYGQDMLRYKGILYFAGVDRRVVFQGVHMLAV” and “HMDDILAYEIEDKEDLENLSLGKSIGINLNKLIKPTLNSFDNSLLFLSKKGNIISYGKLNGDLFKPKKVL” are within 0.2 log units of each other in “soluble fraction (log2)” value: -0.0916 for the first, 0.0598 for the second.

Compared with “HMDDINVSNSKNIVPNVTGHTGSKAIPVLENLGLDVQYSGFGKVTNQSIPAGTRFKKGETIYLMLE”, “HMDDIVFPNPTKNQINVSIDGLKNIYNLSGKLLISTNDKIIDVSILKAGVYFINTNEQFYKFVK” is lower in “soluble fraction (log2)” value: 0.0979 for the first, -1.3 for the second.

Compared with “HMDDIVPHSTKNHIIKTFLSLMNSLDIITDKNKKSLNQNVHIIFNKFNFSKKEANLFIGVLNRIQKALK”, “HMDDLFGNAIEMFNNQRYDMTYELLVQLLSETPNNEKAWQLLADTKFMLGDYDDALHIVGKAAK” is lower in “soluble fraction (log2)” value: 0.552 for the first, -0.89 for the second.

First: HMDDPWHNLANAIVAVAADDYRSALRNEDEGLLKSLELFFHSEWYRILTDVDADRLLGMLRRERS
Second: HMDDTPLNNVIKKIAALPENITLADKSAVLSAWEAYQALSVNLKAQVSNSELLIKAYETILQLEGEDQIK
The “soluble fraction (log2)” value of the first is lower: -1.62 for the first, 0.235 for the second.

Compared with “HMDDYRIEDMMTVVEEQVIRQKETNLSWFFKRAGSLNEIITIFLAALELIKVHRVYVKQEHNFDDIILRKE”, “HMDEAAGVLTQLRAFIAASNLSPGLRLPPERELAEQLGVTRAELRKALAVLEAEGLLWRQVGKGTFYGARP” is lower in “soluble fraction (log2)” value: 0.133 for the first, -0.481 for the second.

For “HMDEAEELYQAVQALKPKYREVILLHYYQGLRVGEIAAILRAPQSTVSIRLRRARQMLNRMLG”, the “soluble fraction (log2)” value was -0.548.
